The test system of data set [1] is OC[C@H]1O[C@@](CO)(O[C@H]2O[C@H](CO)[C@@H](O)[C@H](O)[C@H]2O)[C@@H](O)[C@@H]1O. The data set can be described thus: purified protein. Type of data set: biochemical, Micractinium conductrix. Particulars: 2 mM UDP, 50 mM HEPES-NaOH pH 7.0, 37°C, sucrose cleavage direction, apparent.
In data set [2] the test system is O=c1ccn([C@@H]2O[C@H](COP(=O)(O)OP(=O)(O)O)[C@@H](O)[C@H]2O)c(=O)[nH]1. The data set can be described thus: purified protein. Type of data set: biochemical, Micractinium conductrix. Conditions: 200 mM sucrose, 50 mM HEPES-NaOH pH 7.0, 37°C, sucrose cleavage direction, apparent.

Chain of McSuSy (Micractinium conductrix; S31D) (chain, as listed by the source S31D): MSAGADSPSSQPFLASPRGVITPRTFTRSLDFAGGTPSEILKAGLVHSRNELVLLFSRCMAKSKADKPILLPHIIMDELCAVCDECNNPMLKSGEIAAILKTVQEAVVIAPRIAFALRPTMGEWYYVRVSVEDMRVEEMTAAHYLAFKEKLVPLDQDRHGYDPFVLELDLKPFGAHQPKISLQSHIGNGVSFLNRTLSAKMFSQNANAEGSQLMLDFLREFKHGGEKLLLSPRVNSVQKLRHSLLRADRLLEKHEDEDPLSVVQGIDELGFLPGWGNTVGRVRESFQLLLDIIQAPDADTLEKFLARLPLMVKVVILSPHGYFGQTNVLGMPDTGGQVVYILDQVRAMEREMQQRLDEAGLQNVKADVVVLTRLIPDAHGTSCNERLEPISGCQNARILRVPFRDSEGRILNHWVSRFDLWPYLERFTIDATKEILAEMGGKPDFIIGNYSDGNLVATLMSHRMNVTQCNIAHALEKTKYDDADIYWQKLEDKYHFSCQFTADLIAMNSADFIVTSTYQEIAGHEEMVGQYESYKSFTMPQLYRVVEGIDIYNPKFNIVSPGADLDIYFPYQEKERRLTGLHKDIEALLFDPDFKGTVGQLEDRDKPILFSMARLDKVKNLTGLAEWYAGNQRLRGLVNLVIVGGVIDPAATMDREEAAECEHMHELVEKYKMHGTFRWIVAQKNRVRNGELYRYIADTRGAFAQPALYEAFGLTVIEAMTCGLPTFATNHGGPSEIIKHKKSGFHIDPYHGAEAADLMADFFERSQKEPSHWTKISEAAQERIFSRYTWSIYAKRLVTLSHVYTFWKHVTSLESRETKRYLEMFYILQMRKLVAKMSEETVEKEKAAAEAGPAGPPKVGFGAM
Chain of McSuSy (Micractinium conductrix) (chain, as listed by the source): as the sequence (chain, as listed by the source S31D) above, with D31S counted along it

The term Km denotes the concentration of substrate that gives half-maximal velocity. For orientation: Vmax means the rate approached at saturating substrate. Broadly, the kcat is the number of substrate molecules converted per active site and unit of time at saturation. Usually kcat/Km stands for the turnover number divided by the Michaelis constant. Take McSuSy (Micractinium conductrix): in data set [1], the Km is given as 90 mM. In addition, in data set [2], the Km is recorded as 0.14 mM, the maximum rate (Vmax) is 10.4 µmol/min/mg, the catalytic constant (kcat) amounted to 17.3 s⁻¹ and the kcat/Km worked out at 124000 M⁻¹ s⁻¹.

For the substance McSuSy (Micractinium conductrix; S31D), the Km in data set [1] came out at 88 mM. Further, in data set [2], the Km was 0.092 mM, the Vmax turned out to be 11.4 µmol/min/mg, the kcat amounted to 19 s⁻¹ and the kcat/Km worked out at 206000 M⁻¹ s⁻¹.

For the origin of these results see paper PMC10465243, “Identification of sucrose synthase from Micractinium conductrix to favor biocatalytic glycosylation” (Frontiers in Microbiology, 2023).
